Results published in article PMC3922039.

Biological target: Mboumar-9 transposase (T216A) (Messor bouvieri)
Assay: SEC; analytical size-exclusion chromatography of DNA-free transposase on Superdex 200 at 4 °C; 5.7 uM in 50 uL of 20 mM PIPES pH 6.8, 500 mM NaCl, 5 mM MgCl2, 1 mM DTT; flow 0.5 mL/min

stoichiometry N: 2
Substance: Mboumar-9 transposase (T216A) (enzyme)
